Experimental data reported in patent publication US20220112288A1 (published 2022).

What was measured:
[1] = biological target: T1, human CD4 on cells (SKW3 cells; human PBMCs) (human, UniProt P01730 26-458); experiment: FACS binning on SKW3 cells after supernatant; competitor OKT4-A488; background 2163, max binding 8200
T1 construct: whole, on cells; The SKW3 CD4 knockout cells served as the negative cell line; also called hCD4

[2] = biological target: T1, human CD4 on cells (SKW3 cells; human …); experiment: FACS primary screen, non-clonal supernatant; SKW3 vs SKW3 CD4 KO cells, anti-human Kappa FITC detection
[3] = biological target: T1, human CD4 on cells (SKW3 cells; human …); experiment: FACS confirmation, supernatant on SKW3 WT cells, anti-mFc 647; background gMFI 3300
[4] = biological target: T1, human CD4 on cells (SKW3 cells; human …); experiment: FACS confirmation, supernatant on SKW3 WT cells, anti-hu Kappa FITC; background gMFI 2500
[5] = biological target: T1, human CD4 on cells (SKW3 cells; human …); experiment: FACS binning on SKW3 cells after supernatant; competitor RPA-T4-PE-Dazzle 594; background 783, max binding 15000
huCD4-HIS = biological target: T2, huCD4-HIS (human, UniProt P01730 26-390, limits assumed); experiment: ELISA binning, competitor Ibalizumab; 100 ng/mL huCD4-HIS, anti-HIS HRP detection; background 45, max binding 3000000
T2 construct: Named only in the head of the Ibalizumab ELISA binning column; Neither the source nor the construct limits are told in this stretch; not shown: HIS tag

[6] = biological target: T1, human CD4 on cells (SKW3 cells; human …); experiment: FACS confirmation, supernatant on human PBMCs, anti-mFc 647
[7] = biological target: T1, human CD4 on cells (SKW3 cells; human …); experiment: FACS binning on SKW3 cells after supernatant; competitor OKT4a, anti-hu A647 secondary; background 5000, max binding 35000
[8] = biological target: T1, human CD4 on cells (SKW3 cells; human …); experiment: FACS confirmation, supernatant on human PBMCs, anti-mFc 647, CD4+ gate
[9] = biological target: T1, human CD4 on cells (SKW3 cells; human …); experiment: FACS primary screen, non-clonal supernatant; SKW3 vs SKW3 CD4 KO cells, anti-mouse Fc 647 detection
[10] = biological target: T3, Recombinant human CD4 (R&D Systems, Cat. 10327-CD) (human, UniProt P01730 26-390, limits assumed); experiment: BLI (Octet Red384); purified antibody captured on anti-mouse IgG Fc (AMC) sensors; human CD4 as analyte at 100, 50 and 25 nM; 1:1 global fit
T3 construct: Bought recombinant protein; also called huCD4

[11] = biological target: T4, Rhesus macaque CD4-HIS (Acro Biosystems, Cat. CD4-C52H7) (rhesus macaque, UniProt P16003 26-390); experiment: BLI (Octet Red384); Ab on anti-mouse Fc (AMC) sensor; rhesus CD4-HIS as analyte
T4 construct: Bought reagent; also called Rhesus CD4; rhesus CD4-HIS; not shown: His tag
T4 sequence (P16003 26-390 limits assumed): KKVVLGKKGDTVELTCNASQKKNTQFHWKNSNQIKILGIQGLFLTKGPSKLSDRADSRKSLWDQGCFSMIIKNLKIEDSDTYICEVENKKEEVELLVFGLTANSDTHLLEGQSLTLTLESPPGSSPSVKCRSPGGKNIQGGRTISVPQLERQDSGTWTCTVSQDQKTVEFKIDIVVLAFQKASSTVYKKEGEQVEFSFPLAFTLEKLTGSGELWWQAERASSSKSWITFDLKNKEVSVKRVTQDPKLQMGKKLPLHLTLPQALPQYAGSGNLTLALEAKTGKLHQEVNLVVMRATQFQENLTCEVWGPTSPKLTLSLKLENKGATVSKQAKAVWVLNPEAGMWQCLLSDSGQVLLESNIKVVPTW

B1: 75110_10K21A (antibody, V domains shown)
VH: EVQLVESGGGLVQPGGSLRLSCAASGFTFSSYWMTWVRQAPGKGLEWVANIKQDGSEKYYVDSVKGRFTISRDNAKNSLYLQMNSLRAEDTAVYYCVRDRYDALDIWGQGTMVTVSS
VL: AIQMTQSPSSLSASVGDRVTITCRASQGIRNDLNWYQQKPGKAPKLLIYAASSLQSGVPSRFSGSGSGTDFTLTISSLQAEDFATYYCLKDYNYPYTFGQGTKLEIK
notes: Tested as non-clonal hybridoma supernatant from AlivaMab Mouse Kappa mice, detected with anti-mouse Fc and anti-human Kappa
- OKT4 A488 signal (FACS binning) [1]: 9980
- SKW3 WT vs KO, anti-hKappa-FITC (ratio) [2]: 1.7 ratio
- gMFI, SKW3 WT anti-mFc 647 [3]: 19200 gMFI
- gMFI, SKW3 WT anti-hu Kappa FITC [4]: 5850 gMFI
- RPA-T4-PE-Dazzle 594 signal (FACS binning) [5]: 2590
- Ibalizumab ELISA binning signal (huCD4-HIS): 293000
- PBMCs CD4+ percent bound of viable [6]: 32%
- OKT4a anti-hu A647 signal (FACS binning) [7]: 34100
- PBMCs CD4+ gate RL1 Binding [8]: 224000
- SKW3 WT vs KO, anti-mFc-647 (ratio) [9]: 2.6 ratio

B2: 75110_01H18A (antibody, V domains shown)
VH: QVQLQQWGAGLLKPSETLSLTCAVYGGSFSGYYWSWIRQSPGKGLEWIGEINQSGSTNYNPSLKSRVTISVDTSKNQFSLKLSSVTAADTAVYYCARVINWFDSWGQGTLVTVSS
VL: DIQMTQSPSSVSASVGDRVTITCRASQGISSWLAWYQQKPGKAPKLLIYAASSFQSGVPSRFSGSGSGTDFTLTISSLQTEDFATYYCQQANSFPYTFGQGTRLEIK
notes: as for B1
- OKT4 A488 signal (FACS binning) [1]: 9840
- SKW3 WT vs KO, anti-hKappa-FITC (ratio) [2]: 1.6 ratio
- gMFI, SKW3 WT anti-mFc 647 [3]: 19000 gMFI
- gMFI, SKW3 WT anti-hu Kappa FITC [4]: 4930 gMFI
- RPA-T4-PE-Dazzle 594 signal (FACS binning) [5]: 2830
- Ibalizumab ELISA binning signal (huCD4-HIS): 385000
- PBMCs CD4+ percent bound of viable [6]: 32%
- OKT4a anti-hu A647 signal (FACS binning) [7]: 37200
- PBMCs CD4+ gate RL1 Binding [8]: 263000
- SKW3 WT vs KO, anti-mFc-647 (ratio) [9]: 3.6 ratio

B3: 75110_14P05A (antibody, V domains shown)
VH: EVQLVESGGGLVQPGGSLRLSCAASGFTFSSYDVHWVRQATGKGLEWVSTIGTAGDTYYPGSVKGRFTISRENAKNSLYLQMNSLRAGDTAVYYCARGGFYYYGMDVWGQGTTVTVSS
VL: EIVLTQSPGTLSLSPGERATLSCRASQSVSSSYLAWYQQKPGQTPRLLIYGASSRATGIPDRFSGSGSGTDFTLTISRLEPEDFAVFYCQQSGSSPFTFGPGTKVDVK
notes: Tested as AlivaMab Mouse (AMM) antibody purified from hybridoma supernatant and captured through its mouse IgG Fc; also called ADS75110 purified AMM Ab 75110_14P05A; Sib1.10
- Kd [10]: < 0.001 nM
- koff [10]: < 1e-07 s⁻¹
- kon [10]: 95000 M⁻¹ s⁻¹

B4: 75110_08H11A (antibody, V domains shown)
VH: EVQLVESGGGLVQPGGSLRLSCAASGFTFSSYDMHWVRQATGKGLEWVSTIGTAGDTYYPGSVKGRFTISRENAKNSLYLQMNSLRAGDTAVYYCARGGYSYYGMDVWGQGTTVTVSS
VL: EIVLTQSPGTLSLSPGERATLSCGASQSVSSTYLAWYQQKPGQAPRLLIYGASSRATGIPDRFSGSGSGTDFTLTISRLEPEDFAVYYCQQFGSSPFTFGPGTKVDIK
notes: Tested as antibody purified from AlivaMab Mouse hybridoma supernatant (human variable domains, kappa; mouse Fc, captured on anti-mouse IgG Fc sensors); also called ADS75110 purified AMM Ab
- binding result [11]: no binding (tested: 100 nM (highest of 100, 50, 25 nM))

B5: 75110_14H13A (antibody, V domains shown)
VH: EVQLVESGGGLVQPGGSLRLSCAASGFTFSNYDMHWVRQATGKGLEWVSTIGTAGDTYYPGSVKGRFTISRKNAKNSLYLQMISLRAGDTAVYYCARGGDYYYGMDVWGQGTTVTVSS
VL: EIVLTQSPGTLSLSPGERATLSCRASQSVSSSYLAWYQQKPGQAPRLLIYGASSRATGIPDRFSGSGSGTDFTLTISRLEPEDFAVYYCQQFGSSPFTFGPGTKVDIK
notes: as for B4
- binding result [11]: no binding (tested: 100 nM (highest of 100, 50, 25 nM))

B6: 75110_08H06A (antibody, V domains shown)
VH: EVQLVESGGGLVQPGGSLRLSCAASGFTFSNYDMHWVRQATGKGLEWVSTIGTAGDTYYPGSVKGRFTISRENAKNSLYLQMNSLRAGDTAVYYCARGGYDYYGMDVWGQGTTVTVSS
VL: EIVLTQSPGTLSLSPGERATLSCRASQSITSIYLAWYRQKPGQAPRLLIYGASSRATGIPDRFSGSGSGTDFTLTISRLEPEDFAVYYCQQYGSSPFTFGPGTKVDIK
notes: as for B4
- binding result [11]: no binding (tested: 100 nM (highest of 100, 50, 25 nM))

B7: 75110_14P08A (antibody, V domains shown)
VH: QVQLQESGPGLVKSSETLSLTCTDSGDSIRSYYWNWIRQPAGKGLEWIGRIYASGSTNYNPSLKSRVIMSADTSKNRFSLKLSSVTAADTAVYYCARDGGVGDSLDYWGQGTLVTVSS
VL: DIVMTQTPLSLPVTPGEPASISCRSSQSLLDSDDGNTYLDWYLQKPGQSPQLLIYTLSYRASGVPDRFSGSGSGTDFTLKISRVEAEDVGVYYCMQRIEFPFTFGPGTKVDIK
notes: Tested as AlivaMab Mouse (AMM) antibody purified from hybridoma supernatant and captured through its mouse IgG Fc; also called ADS75110 purified AMM Ab 75110_14P08A; Sib8.2
- Kd [10]: 0.33 nM
- koff [10]: 3.2e-05 s⁻¹
- kon [10]: 96000 M⁻¹ s⁻¹
